Results from paper PMC3361065 (Biochemistry, 2012).

T1: yeast MtRNAP with residues 1-264 deleted (ΔN2) (yeast, UniProt P13433 265-1351)
T1 sequence (looked up): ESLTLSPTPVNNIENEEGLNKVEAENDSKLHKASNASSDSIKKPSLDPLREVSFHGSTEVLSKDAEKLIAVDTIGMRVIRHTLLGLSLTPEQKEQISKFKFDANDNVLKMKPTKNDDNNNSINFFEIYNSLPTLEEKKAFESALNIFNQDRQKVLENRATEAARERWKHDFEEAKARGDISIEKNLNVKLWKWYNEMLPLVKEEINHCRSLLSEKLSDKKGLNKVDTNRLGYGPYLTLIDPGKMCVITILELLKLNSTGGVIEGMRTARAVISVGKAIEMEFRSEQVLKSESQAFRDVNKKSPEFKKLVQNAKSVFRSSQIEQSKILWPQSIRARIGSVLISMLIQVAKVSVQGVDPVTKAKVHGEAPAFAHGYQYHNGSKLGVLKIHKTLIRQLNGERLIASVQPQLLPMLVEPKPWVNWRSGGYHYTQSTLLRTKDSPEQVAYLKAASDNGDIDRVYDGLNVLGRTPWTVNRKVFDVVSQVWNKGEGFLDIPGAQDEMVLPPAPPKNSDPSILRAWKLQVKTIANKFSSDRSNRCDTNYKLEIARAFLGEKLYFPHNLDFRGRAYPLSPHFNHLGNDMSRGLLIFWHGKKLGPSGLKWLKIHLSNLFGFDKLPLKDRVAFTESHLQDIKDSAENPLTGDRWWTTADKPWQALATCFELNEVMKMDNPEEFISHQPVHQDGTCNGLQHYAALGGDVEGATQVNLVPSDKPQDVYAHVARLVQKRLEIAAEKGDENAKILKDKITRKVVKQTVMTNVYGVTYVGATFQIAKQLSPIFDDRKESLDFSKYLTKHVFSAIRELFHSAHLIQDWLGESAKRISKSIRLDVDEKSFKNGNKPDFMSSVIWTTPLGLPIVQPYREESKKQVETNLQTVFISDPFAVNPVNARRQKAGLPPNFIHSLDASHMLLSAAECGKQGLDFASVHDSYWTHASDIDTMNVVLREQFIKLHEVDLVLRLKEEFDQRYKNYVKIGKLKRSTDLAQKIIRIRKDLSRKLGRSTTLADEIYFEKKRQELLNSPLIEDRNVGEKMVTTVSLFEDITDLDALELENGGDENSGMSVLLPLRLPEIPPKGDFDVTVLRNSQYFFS

T2: yeast MtRNAP with residues 1-358 deleted (ΔN1) (yeast, UniProt P13433 359-1351)
T2 sequence (looked up): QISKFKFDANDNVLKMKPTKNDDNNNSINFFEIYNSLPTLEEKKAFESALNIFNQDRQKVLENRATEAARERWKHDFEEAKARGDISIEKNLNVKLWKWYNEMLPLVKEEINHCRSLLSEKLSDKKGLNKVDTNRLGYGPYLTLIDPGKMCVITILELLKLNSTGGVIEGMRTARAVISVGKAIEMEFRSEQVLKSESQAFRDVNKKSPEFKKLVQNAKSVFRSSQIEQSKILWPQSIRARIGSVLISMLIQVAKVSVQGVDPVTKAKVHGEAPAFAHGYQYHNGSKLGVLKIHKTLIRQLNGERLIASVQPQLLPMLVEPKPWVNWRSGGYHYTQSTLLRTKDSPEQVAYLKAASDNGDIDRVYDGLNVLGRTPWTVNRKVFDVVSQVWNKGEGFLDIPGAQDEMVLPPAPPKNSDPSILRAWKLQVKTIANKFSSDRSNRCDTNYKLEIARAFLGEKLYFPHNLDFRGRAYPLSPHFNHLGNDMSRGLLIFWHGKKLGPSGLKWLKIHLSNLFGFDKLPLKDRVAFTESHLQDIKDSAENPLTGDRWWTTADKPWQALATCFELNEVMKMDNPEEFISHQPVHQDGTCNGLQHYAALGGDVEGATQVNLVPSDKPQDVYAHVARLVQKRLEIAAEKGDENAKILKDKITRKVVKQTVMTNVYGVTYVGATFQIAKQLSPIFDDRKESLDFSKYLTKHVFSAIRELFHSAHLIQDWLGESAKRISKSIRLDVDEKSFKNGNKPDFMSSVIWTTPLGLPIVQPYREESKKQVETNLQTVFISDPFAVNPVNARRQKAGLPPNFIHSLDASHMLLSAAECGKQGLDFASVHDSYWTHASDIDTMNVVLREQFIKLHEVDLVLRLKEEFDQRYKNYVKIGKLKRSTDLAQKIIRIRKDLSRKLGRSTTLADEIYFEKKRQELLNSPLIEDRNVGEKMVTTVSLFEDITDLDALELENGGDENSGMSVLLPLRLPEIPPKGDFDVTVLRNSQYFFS


What was measured:
[1] = biological target: T1, yeast MtRNAP with residues 1-264 …; experiment: native gel or EMSA
[2] = biological target: T2, yeast MtRNAP with residues 1-358 …; experiment: ultrafiltration retention
[3] = biological target: yeast mitochondrial RNA polymerase (scMtRNAP) WT;MTF1 (yeast mitochondrial transcription factor) (Saccharomyces cerevisiae?;Saccharomyces …, UniProt P13433;P14908 1-1351;1-341, |); experiment: EMSA
Sequence of yeast mitochondrial RNA polymerase (scMtRNAP) WT;MTF1 (yeast mitochondrial transcription factor) (P13433 whole entry, chain 1 of 2, one chain of several): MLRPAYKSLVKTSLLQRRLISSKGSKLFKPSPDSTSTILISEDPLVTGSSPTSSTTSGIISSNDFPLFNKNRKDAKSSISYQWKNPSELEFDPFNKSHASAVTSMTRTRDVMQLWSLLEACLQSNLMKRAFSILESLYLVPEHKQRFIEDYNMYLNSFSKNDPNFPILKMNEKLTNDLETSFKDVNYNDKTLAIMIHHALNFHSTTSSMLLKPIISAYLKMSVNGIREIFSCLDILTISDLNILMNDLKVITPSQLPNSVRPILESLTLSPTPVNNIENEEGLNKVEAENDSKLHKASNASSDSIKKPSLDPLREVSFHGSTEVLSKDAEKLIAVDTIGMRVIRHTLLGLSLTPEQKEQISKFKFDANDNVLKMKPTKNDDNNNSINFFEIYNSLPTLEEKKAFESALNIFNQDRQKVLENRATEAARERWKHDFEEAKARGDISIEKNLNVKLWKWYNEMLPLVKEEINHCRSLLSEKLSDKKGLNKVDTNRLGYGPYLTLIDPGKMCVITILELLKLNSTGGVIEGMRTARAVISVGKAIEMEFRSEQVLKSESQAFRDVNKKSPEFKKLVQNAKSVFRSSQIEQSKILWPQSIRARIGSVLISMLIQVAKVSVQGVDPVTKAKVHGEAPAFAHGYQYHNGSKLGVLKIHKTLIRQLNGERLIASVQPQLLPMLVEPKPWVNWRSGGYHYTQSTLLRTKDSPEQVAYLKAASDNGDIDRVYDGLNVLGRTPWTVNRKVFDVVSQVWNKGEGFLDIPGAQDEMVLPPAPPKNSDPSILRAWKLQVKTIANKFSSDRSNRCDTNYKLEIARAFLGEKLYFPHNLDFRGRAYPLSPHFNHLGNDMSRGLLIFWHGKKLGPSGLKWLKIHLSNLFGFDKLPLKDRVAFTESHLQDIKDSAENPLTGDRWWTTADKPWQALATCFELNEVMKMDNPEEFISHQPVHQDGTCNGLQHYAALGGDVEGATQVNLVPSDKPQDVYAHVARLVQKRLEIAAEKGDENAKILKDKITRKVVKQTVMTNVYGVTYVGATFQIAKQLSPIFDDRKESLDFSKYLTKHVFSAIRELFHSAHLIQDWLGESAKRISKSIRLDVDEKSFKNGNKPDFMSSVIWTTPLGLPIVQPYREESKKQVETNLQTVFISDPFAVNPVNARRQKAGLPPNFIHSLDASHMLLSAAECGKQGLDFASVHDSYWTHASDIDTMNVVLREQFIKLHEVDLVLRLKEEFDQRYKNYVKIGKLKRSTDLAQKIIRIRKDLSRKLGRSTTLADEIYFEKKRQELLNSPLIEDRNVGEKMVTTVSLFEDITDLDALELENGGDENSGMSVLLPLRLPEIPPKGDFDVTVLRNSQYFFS

binding result [1]	binding result [2]	Binder	Kd [3]
binds	binds	yeast mitochondrial transcription factor MTF1 (natural protein, UniProt P14908 1-341, looked up) MSVPIPGIKDISKLKFFYGFKYLWNPTVYNKIFDKLDLTKTYKHPEELKVLDLYPGVGIQSAIFYNKYCPRQYSLLEKRSSLYKFLNAKFEGSPLQILKRDPYDWSTYSNLIDEERIFVPEVQSSDHINDKFLTVANVTGEGSEGLIMQWLSCIGNKNWLYRFGKVKMLLWMPSTTARKLLARPGMHSRSKCSVVREAFTDTKLIAISDANELKGFDSQCIEEWDPILFSAAEIWPTKGKPIALVEMDPIDFDFDVDNWDYVTRHLMILKRTPLNTVMDSLGHGGQQYFNSRITDKDLLKKCPIDLTNDEFIYLTKLFMEWPFKPDILMDFVDMYQTEHSG	–
–	–	33 bp Duplex promoter (dsDNA) DNA 1: CGCGTAAAACTATTCTTTATTACTTATATCGCG DNA 2: CGCGATATAAGTAATAAAGAATAGTTTTACGCG	480 nM
